Measurements as given in the supplement of paper PMC9170038.

Each sequence was assayed on K4 kissing-loop RNA reporter (assay: apparent KD of K4 kissing-loop reporter; higher = weaker reporter binding). Conditions: Eterna round: R107; input ligand: none.
Description: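 RNA-MaP round R107: designed RNA switches with theophylline, tryptophan, arginine or FMN aptamers are transcribed on-chip within common flanks. They are titrated with a labelled K4 kissing-loop RNA reporter in RNA-MaP buffer (100 mM Tris pH 7.5, 80 mM KCl, 4 mM MgCl2), without ligand or with the indicated ligand. Median apparent KD per design.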
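Also: bound reporter read as fluorescence of individual clusters on recovered sequencing chips by microscopy, with normalized cluster intensities fitted with a binding model.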

Point of comparison: “CGAGCGCGUGCGGCCGCCACUACUAUAAGUCGUCCAAGUUAGUGAUGUUGACUGAACGUCGGAAAUAGGACCGGGCAUAGUUUUA [theeternabot_sameState_KL_Trp_B_40]”, “apparent KD of K4 kissing-loop reporter” value 420 nM. Against it:
- UCCUUUGUUGCCAGUGAUGUUGGACAGGAAGGAGCGGGCAUAAGCCCAGGUAGGUCGCCUGUCAACUUUCUUAUAGCCCUAAGGU [KL-XArg-A16] — within 1.5-fold, 372 nM
- UGUCAUGGAAACAUGACCGUUAAAAUAAAUCGAGGACCGGUACGGCCGCCACUCGUAUAGCGGUCAGUGAUGUUGACUGUAGUAC [KL-SSTryp-A form2 sub12 #dotplot2>1] — within 1.5-fold, 491 nM
- CAUAGGAAACUAUGUUUCUCUCUUACUGAAGGAGCGCGUGAAAACGCAGGUAGGUCGCAGAAUUUGAGAGUGAUGUUCUCAAUAA [Ex Arginine A K4 13] — 2.8-fold lower, 151 nM
- UGUCAUUGGUCUGAUACCAGUACCCUUGGCAGCCAAGGAGUGAUGUUCCGAGGAUACCAGUGCCCUUGGCAGCAGACCGAUGACU [TheoBS 27 #DoubleAptamer #SwitchBubble] — within 1.5-fold, 354 nM
- UCCACGCUUAGAGGAUAUCGGAUUAGAGUGAUGUUCUAAAGACGCCCAGUGAUGUUGGAUGGUAUACGAGAAGGCUGUGGCGUGU [Same State FMN B GF5] — within 1.5-fold, 551 nM
- AUGAGGAGCAGUGAUCCUAUUCCAUGGGAAGGAGCGUAGGAUACUACAGGUAGGUCGCCCAGUGAUGUUGGGCGCGUGCUCUUGG [Zaqua] — 3.2-fold lower, 133 nM
- UGACUGGAUUGAAGGAGCGCUAAACUCCUAGUGAUGUUAGGGACACGAGACAAAGUCUCGAGGCAGGUAGGUCGCAAUCUAGUCU [FiskerMod 6 - Jieux - Same State - Arginine B] — 1.7-fold lower, 247 nM
- GGAUAGGACAGAGGAUAUGGGCUAGGCAAGAAUAACUUGUCUAGCAAAUCCAUGAGGAGUGAUGUUCCAGAAGGCUGUCCUAUCG [FmnBX 1 - #SwitchBubble #StraticStem #DoubleMagnetSystem] — 3.7-fold lower, 114 nM
- ACCACCAGCCGCACGAUACACGGGCAUUACCGAGGACCGGUACGGCCGCCACUCGCCCGCACGCUGGAUCGAGUGAUGUUCGAUC [theeternabot_sameState_KL_Trp_A_15] — within 1.5-fold, 384 nM
- AGCGGCCAGUCGGCCGCCACUCCAAGCAGUGAUGUUGCUAAGUUUCUACAAGAGUGAUGUUCUUAGAGGACCGGGACUGAUGUGA [Exclusion Tryptophan B Gf 7] — 2-fold lower, 211 nM
- UAGGCCGCAUACAUUAGAUAAGGUACCGAUACCAGCCUCGCACCAGGCCCUUGGCAGCGGCAUCAAAUGGGUAGUGAUGUUACCU [theeternabot_exclusion_KL_Theo_A_20] — 2.6-fold lower, 159 nM
- GUUACGCAUGGAAGGAGCGCACUCCGAUUGGGCGACACAGUGAUGUUGUGGUUCGUUCGAAUGCAGGUAGGUCGCCAUGUGUAAC [Ex Arginine B K4 20] — 3-fold lower, 140 nM
- AACACUCACGGAGUGAUGUUCUGGAAUAAACGAGGACCGGUACGGCCGCCACUCGAAAAUGAGUGAGUCCUACGAAAAGUAGGAC [Omei inspired 4] — within 1.5-fold, 361 nM
- AAUUUAUAUUUAUUCUUUAAAUGUUCAGAAGGAGCGUGAAUUAUCACAGGUAGGUCGCUGAGCUAGUGAUGUUGGCUAUAUACUA [whbob_Ex_Arginine_A_2t124] — 2.1-fold lower, 202 nM
- GGCACUUUUGGUAGAAACCAUCUACCUCUAUAGGAUAUGCCGAAAGGCAGAAGGAUAGACCUACAGAGUGAUGUUCUGCGUGCCU — 1.7-fold higher, 719 nM
- GCCCGGGCGAGUGAUGUUCGCCCACGUGAUACCAGUGCCAUCCAACACCCUUGGCAGCACGCGGGCAGUGAUGUUGCCCUUGUAU [Exclusion Theophylline A GF 4] — 3.4-fold lower, 122 nM
- UGCAUGCUUAGAGUGAUGUUCUAAGAUGAUACCAGUGCUUUUUUGCACCCUUGGCAGCGUCUGAUUGCAUGCACGUCGAAAGACG — 1.5-fold lower, 279 nM
- AUGCGCAGCCUGCUUACGUAUGAGCCGGAAGGAGCGGCAGAAUUGCCAGGUAGGUCGCCGGCCCAGUGAUGUUGGGAUGGUGUGG [Atusqubela] — within 1.5-fold, 343 nM
- ACGUGCACCAGUGAUGUUGGAAAAUAUGAAGGAGCGGGAGAAAGCCCAGGUAGGUCGCAUAAUAGCACGAGCCACGAAAGUGGCA — 2.4-fold lower, 178 nM
- CGUUUAUAGCAGGAUACCAGUACCCAUUAAGUACGUUAAUAGUAGAGUGAUGUUCUAAAGUACCCUUGGCAGCUUCCCGUGACCC [ExTheophylB.X] — 3.4-fold lower, 124 nM
- UGACAUUGCUCAGAUACCAGACAUGAGCAUCAGCCAUGUACCAAGAAAACGUACAUAAAUGUCCCUUGGCAGCUGAGCAAUGUCU [TheoBX 10] — 7-fold lower, 59.9 nM

Same assay, conditions: Eterna round: R107; input ligand: theophylline 20 uM

Point of comparison: “AGCGGCCAGUCGGCCGCCACUCCAAGCAGUGAUGUUGCUAAGUUUCUACAAGAGUGAUGUUCUUAGAGGACCGGGACUGAUGUGA [Exclusion Tryptophan B Gf 7]”, “apparent KD of K4 kissing-loop reporter” value 241 nM. Against it:
- GCUAUGGUAGGAAGGAGCGCUUAUUUAUUUUUAAGAGUGAUGUUCGAUAGUAGAUAUUUAAAGCAGGUAGGUCGCCUACUAUAGC [Arginine B K4 13] — 1.8-fold lower, 136 nM
- UUUUUGGUUUAGAGUGAUGUUCCUUGUAUUCGAGGACCGGUACGGCCGCCACUCGAAUAGAAAAGAAAAGAAAAGAGUGAUGUUU [BDazzled - #3 SS Tryptophan A] — within 1.5-fold, 356 nM
- UGUACUAUUGUGAGUGAUGUUCACUUCGAUACCAGCAGAGCGAUCUGCCCUUGGCAGCGAGUUAACUGCCGAAAGGCAAGGAUUA [Theo B SS t9] — 2.3-fold higher, 546 nM
- AGGAUGUAGUGAUGUUAUAUAAGAAGUAAACGAGGACCGGUACGGCCGCCACUCGAAGCGGCUACUAGCGCGUUGCGAGGUGCGC [ExTryptoA.Cc] — 1.5-fold higher, 370 nM
- CUAUAGACCCUUCGGAUAGUGAUGUUGUCACGAGGACCGGUACGGCCGCCACUCGCUGCCACCAUACCGCUUCACGGAACGAGCA [theeternabot_exclusion_KL_Trp_A_7] — 2.5-fold higher, 599 nM
- AAACAACUUGACGAUACCAGCUUACUCGGCAAGCCAGUGAUGUUGGUGAAAAGGAGUCAAAGCCCUUGGCAGCGUCGAAGGUCUG [Raatarerin] — 2-fold lower, 119 nM
- CGCCGCAACUGAAGGAGCGCGCCAGUGAUGUUGGACGGCUUUGUCAAGGAAACUGCACCGGUGCAGGUAGGUCGCAGUUCGCGGU [Dilea] — within 1.5-fold, 253 nM
- GUAUGUGGAAACACGUACUUGUAUCCUAGGCAGGAUAUGCGGAAACGCAGAAGGGCCACCGGCGAGUUUAUCCAGUGAUGUUGGA [Ex FMN A 9] — within 1.5-fold, 251 nM
- AAUAAAAUCACGGCCGCCACUGAAUAAUUACAAAGUAGUGAUGUUACUUUACAUAUCUUAUUUAACAGGACCGGGUGAAUAUUUA [JR_ExcTryptoB_Sub007] — 3.5-fold lower, 69.7 nM
- GAACGGCGGGCGGCCGCCACUGGUAUACGAGUGAUGUUCGGAUAUACAUAAAAUAAGGUAAUUAACAGGACCGGGUCAGAGCCGG [Tryptophan B Same State; Euphoria Solution] — 1.7-fold lower, 142 nM
- GAACAUAGUAAAGGAUAUUCCUGCCUCGCGCGAUUGAUUAGUGAUGUUGACGAUAUCGCUUUGAGGGAAGAAGGUUAACAAGUCA [theeternabot_exclusion_KL_FMN_B_4] — 2-fold higher, 478 nM
- CCGGAUUAUGCGGCCGCCACUGAGAAAUUGGAGGUACGCCCUCCCGAUAGUGAUGUUAUCCAUUACAGGACCGGGCAUCUCCUCU [theeternabot_sameState_KL_Trp_B_23] — 2.1-fold higher, 500 nM
- UUAUUAAUCACAGAUACCAGUCCAGAAUGAAUACUAUAGUGAUGUUAUAAUAAAGGGAAGGACCCUUGGCAGCUGUAAUAUAUUU [AstrosSsTheB#2] — within 1.5-fold, 354 nM
- AAGUUUUAUAAACUCAUGGUUUCGUCAGAUACCAGCCUCGAGAGAGGCCCUUGGCAGCUGCAUGAGUGAUGUUCAUGUUCGAAGA [KL_XTheoA8] — within 1.5-fold, 239 nM
- GGGAGUAGUGCGGCCGCCACUGUGAGGGAAGAAGAAUAUAGUGAUGUUAUAUAGGAAGGGAAGAAUAGGACCGGGCAUUAGAUUU [SSTRyptB.aB] — within 1.5-fold, 230 nM
- UCCUAGGCUCGAAAGAGCCUAGGAUUUACUCAGGAUAUCCGGAAACGGAGAAGGGAGUGACUAGUGAUGUUAGGGACUCCCUAAA — 2.2-fold lower, 108 nM
- AAAUAUAGUGAUGUUAUAUAUAUAUGUGAUACCAGAGAAAGAAAACUCCCUUGGCAGCACGAGAGAGAAUUUUUUUUUUAUAUAU [AstrosSSTheA#1] — 1.7-fold higher, 414 nM
- GGGUCAUGGAACGGAUAAGUGAUGUUUACCCGAGGACCGGUACGGCCGCCACUCGGUCGUUAUUUCCGACGUGCUGGUAAGACUA [theeternabot_exclusion_KL_Trp_A_10] — within 1.5-fold, 348 nM
- AGACUACUGACAGGAUAUAACAUCCUAGUCGUAUACCGAAAGGUAUACGAUUCCCUUCUAGUGAUGUUAGAAGGGUCGGUAGUCA [Omei KL FMN B Exc B v13] — 2.4-fold lower, 98.9 nM
- UGUGUUUACCUGACUCAGUGAUGUUGAGAAGGAGCGUGAGAAGGCACAGGUAGGUCGCUCAACCUAAAUUCAGGUGAGCACUAAA — within 1.5-fold, 193 nM
- UUUAUAUAGUCGGCCGCCACUGAUUUUUUUAUAUGUUUAUGUUUAUACGAGUGAUGUUCGAUAUACAGGACCGGGACUUUGGUUA [JR_SSTryptoB_Sub019] — within 1.5-fold, 224 nM
- UCCUUUGUUGCCAGUGAUGUUGGACAGGAAGGAGCGGGCAUAAGCCCAGGUAGGUCGCCUGUCAACUUUCUUAUAGCCCUAAGGU [KL-XArg-A16] — within 1.5-fold, 323 nM
- CGAGCGCGUGCGGCCGCCACUACUAUAAGUCGUCCAAGUUAGUGAUGUUGACUGAACGUCGGAAAUAGGACCGGGCAUAGUUUUA [theeternabot_sameState_KL_Trp_B_40] — 1.7-fold higher, 415 nM
- UGUCAUGGAAACAUGACCGUUAAAAUAAAUCGAGGACCGGUACGGCCGCCACUCGUAUAGCGGUCAGUGAUGUUGACUGUAGUAC [KL-SSTryp-A form2 sub12 #dotplot2>1] — 2-fold higher, 475 nM
- CAUAGGAAACUAUGUUUCUCUCUUACUGAAGGAGCGCGUGAAAACGCAGGUAGGUCGCAGAAUUUGAGAGUGAUGUUCUCAAUAA [Ex Arginine A K4 13] — within 1.5-fold, 167 nM
- UGUCAUUGGUCUGAUACCAGUACCCUUGGCAGCCAAGGAGUGAUGUUCCGAGGAUACCAGUGCCCUUGGCAGCAGACCGAUGACU [TheoBS 27 #DoubleAptamer #SwitchBubble] — within 1.5-fold, 176 nM
- UCCACGCUUAGAGGAUAUCGGAUUAGAGUGAUGUUCUAAAGACGCCCAGUGAUGUUGGAUGGUAUACGAGAAGGCUGUGGCGUGU [Same State FMN B GF5] — 2.6-fold higher, 622 nM
- AUGAGGAGCAGUGAUCCUAUUCCAUGGGAAGGAGCGUAGGAUACUACAGGUAGGUCGCCCAGUGAUGUUGGGCGCGUGCUCUUGG [Zaqua] — within 1.5-fold, 178 nM
- UGACUGGAUUGAAGGAGCGCUAAACUCCUAGUGAUGUUAGGGACACGAGACAAAGUCUCGAGGCAGGUAGGUCGCAAUCUAGUCU [FiskerMod 6 - Jieux - Same State - Arginine B] — within 1.5-fold, 296 nM
- GGAUAGGACAGAGGAUAUGGGCUAGGCAAGAAUAACUUGUCUAGCAAAUCCAUGAGGAGUGAUGUUCCAGAAGGCUGUCCUAUCG [FmnBX 1 - #SwitchBubble #StraticStem #DoubleMagnetSystem] — within 1.5-fold, 177 nM
- ACCACCAGCCGCACGAUACACGGGCAUUACCGAGGACCGGUACGGCCGCCACUCGCCCGCACGCUGGAUCGAGUGAUGUUCGAUC [theeternabot_sameState_KL_Trp_A_15] — 1.5-fold higher, 371 nM
